Data published in article doi:10.1101/2021.01.14.426695.

What was measured:
[1] = biological target: S-R (SARS-CoV-2 S protein trimer, furin site deleted to a single arginine) (SARS-CoV-2); assay: negative stain EM
[2] = biological target: S-R/PP (SARS-CoV-2 S protein trimer, furin site deleted to a single arginine, two stabilizing prolines) (SARS-CoV-2); assay: negative stain EM

Row | Substance | stoichiometry N [1] | stoichiometry N [2]
1 | S-R (SARS-CoV-2 S protein trimer, furin site deleted to a single arginine) | 3 | 
2 | S-R/PP (SARS-CoV-2 S protein trimer, furin site deleted to a single arginine, two stabilizing prolines) |  | 3
